Series [1] has as its target T1, Solute carrier family 22 member 2 (Homo sapiens, UniProt O15244).
T1 sequence (O15244 whole entry): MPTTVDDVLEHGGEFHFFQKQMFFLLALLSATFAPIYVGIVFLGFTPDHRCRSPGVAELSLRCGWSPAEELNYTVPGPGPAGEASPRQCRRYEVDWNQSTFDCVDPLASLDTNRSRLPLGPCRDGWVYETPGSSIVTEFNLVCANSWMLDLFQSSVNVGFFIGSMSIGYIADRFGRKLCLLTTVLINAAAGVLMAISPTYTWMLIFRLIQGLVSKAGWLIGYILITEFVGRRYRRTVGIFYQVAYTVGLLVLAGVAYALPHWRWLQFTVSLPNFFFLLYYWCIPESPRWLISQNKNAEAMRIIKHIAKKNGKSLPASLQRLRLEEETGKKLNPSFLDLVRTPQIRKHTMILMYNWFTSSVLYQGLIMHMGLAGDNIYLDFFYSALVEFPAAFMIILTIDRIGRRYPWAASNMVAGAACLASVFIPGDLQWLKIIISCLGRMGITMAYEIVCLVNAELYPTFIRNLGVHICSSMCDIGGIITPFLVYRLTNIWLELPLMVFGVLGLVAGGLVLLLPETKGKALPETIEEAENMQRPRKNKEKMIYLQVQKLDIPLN
Description: TP_TRANSPORTER: inhibition of Dopamine uptake (Dopamine: 200 uM) in Xenopus laevis oocytes. Type of series: functional, cell-based, Oocyte.

Series [2] deals with T1, Solute carrier family 22 member 2. The experiment in a line: TP_TRANSPORTER: uptake in OCT2-expressing HEK293 cells. The series is classed as functional, cell-based.
Substrate in series [3]: NCCc1ccc(O)c(O)c1
Description: cells, lysate or membranes named.

Substrate in series [4]: NCCc1c[nH]cn1
The experiment in a line: cells, lysate or membranes named.

Substrate in series [5]: CC12CC3CC(C)(C1)CC(N)(C3)C2
The experiment in a line: (§1) TP_TRANSPORTER: uptake (electrogenesis) in Xenopus laevis oocytes. The series is classed as functional, cell-based, Oocyte.

Substrate in series [6]: NC12CC3CC(CC(C3)C1)C2
The series is described as §1. Type of series: functional, cell-based, Oocyte.

Substrate in series [7]: NC[C@H](O)c1ccc(O)c(O)c1
The experiment in a line: (§2) TP_TRANSPORTER: uptake in Xenopus laevis oocytes. The series is classed as functional, cell-based, Oocyte.

Substrate in series [8]: NCCc1c[nH]c2ccc(O)cc12
The description is as §2. The series is classed as functional, cell-based, Oocyte.

Values joined by “and” are separate entries in the source; they are usually repeats but may differ in a detail not shown here. Equal values may be shown once.

Turning to `NC12CC3CC(CC(C3)C1)C2` [AMANTADINE], the midpoint of inhibition in series [1], the IC50, lay at 23 µM.

Consider `C[n+]1ccc(-c2ccccc2)cc1`, for which the Km in series [2] was found to be 16 µM.

B1: Solute carrier family 22 member 2 (Homo sapiens) (protein)
chain: MPTTVDDVLEHGGEFHFFQKQMFFLLALLSATFAPIYVGIVFLGFTPDHRCRSPGVAELSLRCGWSPAEELNYTVPGPGPAGEASPRQCRRYEVDWNQSTFDCVDPLASLDTNRSRLPLGPCRDGWVYETPGSSIVTEFNLVCANSWMLDLFQSSVNVGFFIGSMSIGYIADRFGRKLCLLTTVLINAAAGVLMAISPTYTWMLIFRLIQGLVSKAGWLIGYILITEFVGRRYRRTVGIFYQVAYTVGLLVLAGVAYALPHWRWLQFTVSLPNFFFLLYYWCIPESPRWLISQNKNAEAMRIIKHIAKKNGKSLPASLQRLRLEEETGKKLNPSFLDLVRTPQIRKHTMILMYNWFTSSVLYQGLIMHMGLAGDNIYLDFFYSALVEFPAAFMIILTIDRIGRRYPWAASNMVAGAACLASVFIPGDLQWLKIIISCLGRMGITMAYEIVCLVNAELYPTFIRNLGVHICSSMCDIGGIITPFLVYRLTNIWLELPLMVFGVLGLVAGGLVLLLPETKGKALPETIEEAENMQRPRKNKEKMIYLQVQKLDIPLN
B1: the Km was 330 µM and 390 µM and 520 µM in series [3]; 1300 µM in series [4]; 34 µM in series [5]; 27 µM in series [6]; 1900 µM in series [7]; 80 µM in series [8].

By IC50 is commonly meant the concentration needed to halve the response being measured. In general, Km refers to the substrate concentration at which the rate is half of its maximum.

Values taken from ChEMBL document CHEMBL2074348, “Human neurons express the polyspecific cation transporter hOCT2, which translocates monoamine neurotransmitters, amantadine, and memantine” (Mol Pharmacol, 1998).
